Target: T1, Arabidopsis cryptochrome 2 (CRY2) (Arabidopsis, UniProt Q96524 1-612)
T1 construct: also called AT1G04400
Test: yeast β-gal assay, dark or blue light (FIG. 5H)
Experimental: The H293 cells were transfected with vector expressing CRY2 only (CRY2), or together with vector expression Myc-BIC1 (CRY2+BIC1) and cultured in dark for 24 hours. The cells were cracked and divided into equally 12 tubes, then treated with blue light (40 μmol m⁻² s⁻¹) for the duration indicated. The sample were analyzed by western blot using anti-CRY2 antibody and anti-Myc antibody sequentially. (FIG. 5B) β-Gal assay of yeast cells expressing indicated proteins kept in darkness (D) or irradiated with blue light (B50, 50 μmol m⁻² s⁻¹) for indicated durations. (FIG. 5C) Fluorescence images showing the formation of CRY2-GFP nuclear bodies in the protoplasts of WT, BIC1-OX line or […]. The protoplasts transformed with CRY2-GFP construct were kept in darkness overnight and then irradiated with blue light (20 μmol m⁻² s⁻¹) for the time indicated. […] Each sample contains at least 50 protoplast. Means and SD (n=3) are shown. (FIG. 5E) BiFC analysis of the blue-light-induced formation of CRY2 nuclear bodies in protoplasts of WT, BIC1-OX line or BIC2-OX line. The protoplasts transformed with cYFP-CRY2 and nYFP-CRY2 constructs were kept in darkness overnight and then irradiated with blue light (20 μmol m⁻² s⁻¹) for the time indicated. […] Each sample contains at least 50 protoplast. Means and SD (n=3) are shown. […]

T1 sequence (Q96524 whole entry): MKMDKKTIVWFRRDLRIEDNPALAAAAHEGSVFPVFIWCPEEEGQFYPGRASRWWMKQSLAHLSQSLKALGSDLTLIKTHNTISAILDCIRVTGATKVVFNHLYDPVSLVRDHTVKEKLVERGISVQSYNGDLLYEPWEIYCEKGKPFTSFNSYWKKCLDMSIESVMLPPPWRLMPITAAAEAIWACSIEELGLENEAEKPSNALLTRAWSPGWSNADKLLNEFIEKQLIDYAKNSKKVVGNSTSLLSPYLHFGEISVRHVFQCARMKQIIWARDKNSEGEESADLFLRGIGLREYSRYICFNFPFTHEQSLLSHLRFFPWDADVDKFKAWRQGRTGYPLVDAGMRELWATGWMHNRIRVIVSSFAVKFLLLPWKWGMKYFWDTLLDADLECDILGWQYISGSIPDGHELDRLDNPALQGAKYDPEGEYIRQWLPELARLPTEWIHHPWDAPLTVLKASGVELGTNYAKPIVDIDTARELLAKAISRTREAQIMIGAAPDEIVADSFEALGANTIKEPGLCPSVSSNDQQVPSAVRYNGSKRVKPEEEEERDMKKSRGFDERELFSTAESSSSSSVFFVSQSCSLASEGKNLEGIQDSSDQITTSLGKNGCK

B1: Arabidopsis CIB1 (cryptochrome-interacting basic-helix-loop-helix) protein (other)
chain: MNGAIGGDLLLNFPDMSVLERQRAHLKYLNPTFDSPLAGFFADSSMITGGEMDSYLSTAGLNLPMMYGETTVEGDSRLSISPETTLGTGNFKKRKFDTETKDCNEKKKKMTMNRDDLVEEGEEEKSKITEQNNGSTKSIKKMKHKAKKEENNFSNDSSKVTKELEKTDYIHVRARRGQATDSHSIAERVRREKISERMKFLQDLVPGCDKITGKAGMLDEIINYVQSLQRQIEFLSMKLAIVNPRPDFDMDDIFAKEVASTPMTVVPSPEMVLSGYSHEMVHSGYSSEMVNSGYLHVNPMQQVNTSSDPLSCFNNGEAPSMWDSHVQNLYGNLGV
notes: also called AT4G34530
**Q.** Does B1 bind?
**A.** binds

Reference: patent US20190300875A1 (University of California, published 2019)
